# Results published in the supplement of paper PMC10065799, “High-throughput profiling of sequence recognition by tyrosine kinases and SH2 domains using bacterial peptide display” (eLife, 2023).
# Molecular target: FGFR1 (UniProt P11362)
# Experiment: phosphorylation enrichment, bacterial display (enrichment ratio); higher = better substrate or ligand; peptides without Tyr show the background
# 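Note: 11-residue human phosphosite peptides and single-mutation variants displayed on the E. coli surface, counted by deep sequencing, each peptide's frequency after selection divided by its frequency in the unselected input library; frequency after pTyr selection over input frequency; kinase dosed for 20-30% of maximal phosphorylation in three min.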
# FGFR1, sequence (P11362 whole entry, looked up): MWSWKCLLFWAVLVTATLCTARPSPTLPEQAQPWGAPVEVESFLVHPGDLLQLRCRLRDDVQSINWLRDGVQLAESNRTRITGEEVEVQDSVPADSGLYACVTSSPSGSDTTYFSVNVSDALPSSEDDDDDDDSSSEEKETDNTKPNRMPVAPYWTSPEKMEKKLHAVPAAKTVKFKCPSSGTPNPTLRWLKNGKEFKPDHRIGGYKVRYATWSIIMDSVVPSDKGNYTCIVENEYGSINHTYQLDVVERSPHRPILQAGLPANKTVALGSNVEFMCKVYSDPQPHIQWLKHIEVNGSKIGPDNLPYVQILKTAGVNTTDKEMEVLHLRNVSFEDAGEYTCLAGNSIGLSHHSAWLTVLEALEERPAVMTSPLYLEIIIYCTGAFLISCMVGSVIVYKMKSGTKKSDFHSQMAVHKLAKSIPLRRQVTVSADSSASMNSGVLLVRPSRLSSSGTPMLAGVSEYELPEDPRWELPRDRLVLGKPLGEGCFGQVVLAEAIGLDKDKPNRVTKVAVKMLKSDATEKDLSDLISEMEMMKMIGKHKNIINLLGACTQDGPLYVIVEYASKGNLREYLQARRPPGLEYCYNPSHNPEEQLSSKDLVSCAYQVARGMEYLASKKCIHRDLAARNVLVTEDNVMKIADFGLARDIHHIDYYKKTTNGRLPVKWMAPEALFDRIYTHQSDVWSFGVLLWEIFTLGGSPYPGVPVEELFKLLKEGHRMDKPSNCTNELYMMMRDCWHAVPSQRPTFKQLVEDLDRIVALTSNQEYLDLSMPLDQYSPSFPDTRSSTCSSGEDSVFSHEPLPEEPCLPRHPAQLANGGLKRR
row,Sequence,phosphorylation enrichment
1,AGLVQYYMEHH [PTPN11_Y80_E76G],0.608
2,SGIFQYIIAKF [FOXL2_Y83_YF],0.639
3,AGVIIYTSRFQ [PFAS_Y538_A535V],0.679
4,ALLTKYSHSSM [DSCC1_Y374],0.45
5,GAAMLYYPSVS [GPR143_Y177],4.07
6,EVVGRYSVHYA [MLH1_Y183_N187Y],0.462
7,LHAAAYQNALA [UQCRC2_Y182_R183Q],0.512
8,LYSGDCYRIQG [DDR2_Y740_Y740C],0.956
9,GADAIYDHVNE [UQCR10_Y44_I47V],0.456
10,SLLKDYSPQLQ [OTC_Y345_T343K],0.495
11,MAYDRYVAICS [OR8D4_Y123_C120Y],0.603
12,RNIQQHNSFVS [PRKAR1A_Y373_Y373H],0.42
13,RSSGGYEPRGR [FUS_Y239],0.555
14,KFGTNYRVGSS [CPO_Y278_YF],0.509
15,VTHKEYFIFLE [CAMKV_Y95_R92H],2.2
16,QHVPDYRQNGF [PCDHGA1_Y890_V894G_YF],0.55
17,MASTSYDYCRV [BST2_Y6],1.27

row,Sequence,phosphorylation enrichment
1,SRDPFYEMLAA [CYTH1_Y382],5.1
2,EEQKKYFNATK [SCN5A_Y1494_M1498T_YF],0.49
3,ANVIHYFPTQA [SLC25A4_Y81_R80H],0.487
4,HLVLNYGVCVC [JAK2_Y613],0.91
5,DLDLTSIYPNI [PTEN_Y27_Y27S],0.468
6,GGDGSYVSVPS [TNNI3K_Y425],0.419
7,RGVVMYTSKDR [ZG16B_Y136_M133V],0.433
8,NKYTTYLPRLP [C9orf24_Y126],0.402
9,VKKNRYKDILP [PTPN12_Y64],0.519
10,GRTGHYLCNAC [GATA1_Y223_D218G],0.436
11,QELRRYLKSGI [MICA_Y194_V199I],0.429
12,IPQEEYTATGL,0.506
13,GLAELYEFKKK [CKAP5_Y1854_YF],0.487
14,ITNLLYHLVGW [GBA_Y412_V414L],6.54
15,KHTLSFVDVGT [SDHA_Y629_Y629F],0.348
16,KGTAGYTTVAV [RET_Y752_R749T],0.327

# System: AncSZ
# Experiment: as above
row,Sequence,phosphorylation enrichment
1,AGLVQYYMEHH [PTPN11_Y80_E76G],0.677
2,SGIFQYIIAKF [FOXL2_Y83_YF],1.14
3,AGVIIYTSRFQ [PFAS_Y538_A535V],1.05
4,ALLTKYSHSSM [DSCC1_Y374],0.651
5,GAAMLYYPSVS [GPR143_Y177],0.763
6,EVVGRYSVHYA [MLH1_Y183_N187Y],0.751
7,LHAAAYQNALA [UQCRC2_Y182_R183Q],1.01
8,LYSGDCYRIQG [DDR2_Y740_Y740C],1.05
9,GADAIYDHVNE [UQCR10_Y44_I47V],1.09
10,SLLKDYSPQLQ [OTC_Y345_T343K],0.703
11,MAYDRYVAICS [OR8D4_Y123_C120Y],1.01
12,RNIQQHNSFVS [PRKAR1A_Y373_Y373H],0.601
13,RSSGGYEPRGR [FUS_Y239],0.652
14,KFGTNYRVGSS [CPO_Y278_YF],1.04
15,VTHKEYFIFLE [CAMKV_Y95_R92H],1.08
16,QHVPDYRQNGF [PCDHGA1_Y890_V894G_YF],0.787
17,MASTSYDYCRV [BST2_Y6],1.11

row,Sequence,phosphorylation enrichment
1,SRDPFYEMLAA [CYTH1_Y382],1.21
2,EEQKKYFNATK [SCN5A_Y1494_M1498T_YF],0.607
3,ANVIHYFPTQA [SLC25A4_Y81_R80H],0.623
4,HLVLNYGVCVC [JAK2_Y613],2.33
5,DLDLTSIYPNI [PTEN_Y27_Y27S],0.871
6,GGDGSYVSVPS [TNNI3K_Y425],0.564
7,RGVVMYTSKDR [ZG16B_Y136_M133V],0.694
8,NKYTTYLPRLP [C9orf24_Y126],0.575
9,VKKNRYKDILP [PTPN12_Y64],0.709
10,GRTGHYLCNAC [GATA1_Y223_D218G],0.445
11,QELRRYLKSGI [MICA_Y194_V199I],0.489
12,IPQEEYTATGL,1.16
13,GLAELYEFKKK [CKAP5_Y1854_YF],0.534
14,ITNLLYHLVGW [GBA_Y412_V414L],1.09
15,KHTLSFVDVGT [SDHA_Y629_Y629F],0.661
16,KGTAGYTTVAV [RET_Y752_R749T],0.517

# Molecular target: MERTK (UniProt Q12866)
# Experiment: as above
# MERTK, sequence (Q12866 whole entry, looked up): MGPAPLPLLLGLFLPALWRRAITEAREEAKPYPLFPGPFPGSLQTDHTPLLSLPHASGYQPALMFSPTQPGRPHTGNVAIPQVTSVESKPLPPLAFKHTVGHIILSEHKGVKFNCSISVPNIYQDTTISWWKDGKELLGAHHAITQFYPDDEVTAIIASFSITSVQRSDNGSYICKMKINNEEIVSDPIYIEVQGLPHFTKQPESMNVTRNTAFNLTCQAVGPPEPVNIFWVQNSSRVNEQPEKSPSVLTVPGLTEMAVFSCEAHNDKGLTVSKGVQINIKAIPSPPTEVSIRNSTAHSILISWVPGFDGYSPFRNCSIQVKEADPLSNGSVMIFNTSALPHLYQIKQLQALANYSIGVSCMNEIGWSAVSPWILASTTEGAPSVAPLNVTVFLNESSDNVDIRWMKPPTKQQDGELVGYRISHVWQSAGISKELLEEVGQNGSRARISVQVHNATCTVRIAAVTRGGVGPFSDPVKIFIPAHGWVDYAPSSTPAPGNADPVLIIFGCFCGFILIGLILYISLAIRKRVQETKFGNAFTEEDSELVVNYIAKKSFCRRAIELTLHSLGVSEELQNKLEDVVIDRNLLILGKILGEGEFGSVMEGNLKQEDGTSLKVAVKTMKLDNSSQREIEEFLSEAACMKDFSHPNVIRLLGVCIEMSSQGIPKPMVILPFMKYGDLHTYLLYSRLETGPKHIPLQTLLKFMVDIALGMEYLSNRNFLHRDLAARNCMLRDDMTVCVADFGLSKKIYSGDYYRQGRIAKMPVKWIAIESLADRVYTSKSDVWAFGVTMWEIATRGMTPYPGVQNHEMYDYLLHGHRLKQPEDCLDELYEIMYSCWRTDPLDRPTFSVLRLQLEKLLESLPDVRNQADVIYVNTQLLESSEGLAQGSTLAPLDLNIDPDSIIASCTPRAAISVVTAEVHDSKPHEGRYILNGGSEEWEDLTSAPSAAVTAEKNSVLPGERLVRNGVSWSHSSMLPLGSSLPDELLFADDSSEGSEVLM
row,Sequence,phosphorylation enrichment
1,AGLVQYYMEHH [PTPN11_Y80_E76G],0.49
2,SGIFQYIIAKF [FOXL2_Y83_YF],0.518
3,AGVIIYTSRFQ [PFAS_Y538_A535V],0.429
4,ALLTKYSHSSM [DSCC1_Y374],0.436
5,GAAMLYYPSVS [GPR143_Y177],4.88
6,EVVGRYSVHYA [MLH1_Y183_N187Y],0.46
7,LHAAAYQNALA [UQCRC2_Y182_R183Q],0.4
8,LYSGDCYRIQG [DDR2_Y740_Y740C],6.98
9,GADAIYDHVNE [UQCR10_Y44_I47V],2.02
10,SLLKDYSPQLQ [OTC_Y345_T343K],0.443
11,MAYDRYVAICS [OR8D4_Y123_C120Y],0.77
12,RNIQQHNSFVS [PRKAR1A_Y373_Y373H],0.329
13,RSSGGYEPRGR [FUS_Y239],0.425
14,KFGTNYRVGSS [CPO_Y278_YF],0.508
15,VTHKEYFIFLE [CAMKV_Y95_R92H],0.516
16,QHVPDYRQNGF [PCDHGA1_Y890_V894G_YF],0.464
17,MASTSYDYCRV [BST2_Y6],0.904

row,Sequence,phosphorylation enrichment
1,SRDPFYEMLAA [CYTH1_Y382],7.89
2,EEQKKYFNATK [SCN5A_Y1494_M1498T_YF],0.269
3,ANVIHYFPTQA [SLC25A4_Y81_R80H],0.456
4,HLVLNYGVCVC [JAK2_Y613],1.44
5,DLDLTSIYPNI [PTEN_Y27_Y27S],0.516
6,GGDGSYVSVPS [TNNI3K_Y425],0.338
7,RGVVMYTSKDR [ZG16B_Y136_M133V],0.552
8,NKYTTYLPRLP [C9orf24_Y126],0.483
9,VKKNRYKDILP [PTPN12_Y64],0.592
10,GRTGHYLCNAC [GATA1_Y223_D218G],0.481
11,QELRRYLKSGI [MICA_Y194_V199I],0.406
12,IPQEEYTATGL,0.378
13,GLAELYEFKKK [CKAP5_Y1854_YF],0.381
14,ITNLLYHLVGW [GBA_Y412_V414L],8.16
15,KHTLSFVDVGT [SDHA_Y629_Y629F],0.315
16,KGTAGYTTVAV [RET_Y752_R749T],0.349

# Molecular target: Jak2 (UniProt O60674)
# Experiment: as above
# Jak2, sequence (O60674 whole entry, looked up): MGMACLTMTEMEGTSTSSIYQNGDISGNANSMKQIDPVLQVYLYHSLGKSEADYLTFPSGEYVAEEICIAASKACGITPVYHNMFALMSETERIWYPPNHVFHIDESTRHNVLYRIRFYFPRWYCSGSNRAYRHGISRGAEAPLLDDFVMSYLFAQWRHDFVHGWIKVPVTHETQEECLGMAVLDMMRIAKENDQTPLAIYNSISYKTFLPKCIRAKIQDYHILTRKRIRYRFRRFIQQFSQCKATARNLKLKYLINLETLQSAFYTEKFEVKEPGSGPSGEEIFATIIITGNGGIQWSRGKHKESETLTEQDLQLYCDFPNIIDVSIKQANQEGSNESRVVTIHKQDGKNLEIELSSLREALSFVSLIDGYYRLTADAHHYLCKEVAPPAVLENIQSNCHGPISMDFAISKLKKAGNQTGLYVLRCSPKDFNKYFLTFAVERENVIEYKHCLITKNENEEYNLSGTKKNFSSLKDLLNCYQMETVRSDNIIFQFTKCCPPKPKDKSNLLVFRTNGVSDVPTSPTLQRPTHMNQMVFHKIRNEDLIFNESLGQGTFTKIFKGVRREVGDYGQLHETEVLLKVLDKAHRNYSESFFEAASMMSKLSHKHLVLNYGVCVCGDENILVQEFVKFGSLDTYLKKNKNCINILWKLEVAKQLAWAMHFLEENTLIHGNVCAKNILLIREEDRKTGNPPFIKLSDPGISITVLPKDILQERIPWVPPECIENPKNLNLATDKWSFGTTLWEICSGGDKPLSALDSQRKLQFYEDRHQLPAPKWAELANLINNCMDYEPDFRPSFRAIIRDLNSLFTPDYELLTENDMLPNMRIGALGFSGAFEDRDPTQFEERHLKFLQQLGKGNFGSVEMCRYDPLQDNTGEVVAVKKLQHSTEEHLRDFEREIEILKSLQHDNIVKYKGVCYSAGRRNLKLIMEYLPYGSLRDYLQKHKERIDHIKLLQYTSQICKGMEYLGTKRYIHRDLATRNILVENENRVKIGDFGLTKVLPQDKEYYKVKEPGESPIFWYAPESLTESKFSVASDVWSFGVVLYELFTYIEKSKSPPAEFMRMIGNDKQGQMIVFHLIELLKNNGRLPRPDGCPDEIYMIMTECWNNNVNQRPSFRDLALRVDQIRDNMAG
row,Sequence,phosphorylation enrichment
1,AGLVQYYMEHH [PTPN11_Y80_E76G],0.607
2,SGIFQYIIAKF [FOXL2_Y83_YF],1.07
3,AGVIIYTSRFQ [PFAS_Y538_A535V],0.87
4,ALLTKYSHSSM [DSCC1_Y374],0.542
5,GAAMLYYPSVS [GPR143_Y177],2.6
6,EVVGRYSVHYA [MLH1_Y183_N187Y],0.823
7,LHAAAYQNALA [UQCRC2_Y182_R183Q],0.646
8,LYSGDCYRIQG [DDR2_Y740_Y740C],1.04
9,GADAIYDHVNE [UQCR10_Y44_I47V],0.773
10,SLLKDYSPQLQ [OTC_Y345_T343K],0.624
11,MAYDRYVAICS [OR8D4_Y123_C120Y],1.15
12,RNIQQHNSFVS [PRKAR1A_Y373_Y373H],0.461
13,RSSGGYEPRGR [FUS_Y239],0.683
14,KFGTNYRVGSS [CPO_Y278_YF],0.767
15,VTHKEYFIFLE [CAMKV_Y95_R92H],1.29
16,QHVPDYRQNGF [PCDHGA1_Y890_V894G_YF],0.826
17,MASTSYDYCRV [BST2_Y6],0.687

row,Sequence,phosphorylation enrichment
1,SRDPFYEMLAA [CYTH1_Y382],0.729
2,EEQKKYFNATK [SCN5A_Y1494_M1498T_YF],0.6
3,ANVIHYFPTQA [SLC25A4_Y81_R80H],0.794
4,HLVLNYGVCVC [JAK2_Y613],1.99
5,DLDLTSIYPNI [PTEN_Y27_Y27S],0.903
6,GGDGSYVSVPS [TNNI3K_Y425],0.495
7,RGVVMYTSKDR [ZG16B_Y136_M133V],1.02
8,NKYTTYLPRLP [C9orf24_Y126],0.706
9,VKKNRYKDILP [PTPN12_Y64],0.839
10,GRTGHYLCNAC [GATA1_Y223_D218G],0.446
11,QELRRYLKSGI [MICA_Y194_V199I],0.335
12,IPQEEYTATGL,0.955
13,GLAELYEFKKK [CKAP5_Y1854_YF],0.619
14,ITNLLYHLVGW [GBA_Y412_V414L],1.47
15,KHTLSFVDVGT [SDHA_Y629_Y629F],0.624
16,KGTAGYTTVAV [RET_Y752_R749T],0.398
